Literature values, collected in patent US20260217837A1, “FGFR3 BINDING MOLECULES AND METHODS OF USE THEREOF” (Regeneron Pharmaceuticals, Inc., priority 2023, published 2026).
Read-outs that look alike come from different tables or passages of the source.

System: FGFR3
[1] = Table T-1, exemplary FGFR3 parental antibodies of cited publications
[2] = Exemplary FGFR3 D3 binding sequences, antibodies of cited PCT publications

Row | Molecule | Activity [1] | Activity [2]
1 | FGA0007: anti-FGFR3 (S249C mutant) antibody of WO 2021/010326 A1; SEQ ID NO: 88/89 (antibody, V domains shown) VH: QSVEESGGRLVTPGTPLTLTCTVSGFSLSSYPMSWVRQAPGKGLEWIGIISSSGRTYYASWAKGRFTISKASSTTAALKMTSLTTEDTATYFCARGGVYKYDDYGDYVLNLWGRGTLVTVSS VL: AIEMTQTPFSVSAAVGGTVTINCQASENIYSNLAWYQQKPGQPPKLLIYAASYLASGVPSRFKGSGSGTDYTLTISGVQCADAATYYCQCTLYSSTYGVAFGGGTEVVVK | Antagonistic | –
2 | MS-Pro-29: anti-FGFR3 Ig-like domain 3 antibody of WO 2002/102972 A2; SEQ ID NO: 40/41 (antibody, V domains shown) VH: QVQLVQSGAEVKKPGASVKVSCKASGYTFTSYYMHWVRQAPGQGLEWMGWINPNSGGTNYAQKFQGRVTMTRDTSISTAYMELSSLRSEDTAVYYCARTWQYSYFYYLDGGYYFDIWGQGTLVTVSS VL: DIVLTQSPATLSLSPGERATLSCRASQSVSSSYLAWYQQKPGQAPRLLIYGASSRATGVPARFSGSGSGTDFTLTISSLEPEDFATYYCQQTNNAPVTFGQGTKVEIKRT | Antagonistic | Antagonistic
3 | MS-Pro-26: anti-FGFR3 Ig-like domain 3 antibody of WO 2002/102972 A2; SEQ ID NO: 36/37 (antibody, V domains shown) VH: QVQLVQSGAEVKKPGASVKVSCKASGYTFTSYYMHWVRQAPGQGLEWMGWINPNSGGTNYAQKFQGRVTMTRDTSISTAYMELSSLRSEDTAVYYCARGYWYAYFTYINYGYFDNWGQGTLVTVSS VL: DIALTQPASVSGSPGQSITISCTGTSSDVGGYNYVSWYQQHPGKAPKLMIYDVSNRPSGVSNRFSGSKSGNTASLTISGLQAEDEADYYCQSYDNNSDWFGGGTKLTVLGQ | Antagonistic | Antagonistic
4 | MS-Pro-2: anti-FGFR3 Ig-like domain 2 antibody of WO 2002/102972 A2; SEQ ID NO: 24/25 (antibody, V domains shown) VH: QVQLVQSGAEVKKPGASVKVSCKASGYTFTSYYMHWVRQAPGQGLEWMGWINPNSGGTNYAQKFQGRVTMTRDTSISTAYMELSSLRSEDTAVYYCARDFLGYEFDYWGQGTLVTVSS VL: DIELTQPPSVSVAPGQTARISCSGDALGDKYASWYQQKPGQAPVLVIYDDSDRPSGIPERFSGSNSGNTATLTISGTQAEDEADYYCQSYDYSADYVFGGGTKLTVLGQ | Antagonistic | –
5 | MS-Pro-28: anti-FGFR3 Ig-like domain 3 antibody of WO 2002/102972 A2; SEQ ID NO: 38/39 (antibody, V domains shown) VH: QVQLVQSGAEVKKPGSSVKVSCKASGGTFSSYAISWVRQAPGQGLEWMGGIIPIFGTANYAQKFQGRVTITADESSTAYMELSSLRSEDTAVYYCARGGGWVSHGYYYLFDLWGQGTLVTVSS VL: DIQMTQSPSSLSASVGDRVTITCRASQGISSYLAWYQQKPGKAPKLLIYAASSLQSGVPSRFSGSGSGTDFTLTISSLQPEDFAVYYCFQYGSIPPTFGQGTKVEIKRT | Antagonistic | Antagonistic
